Data reported in the DeepSol protein solubility set.

assay: soluble on expression in E. coli; label from the status in PepcDB or PDB records

Row | Sequence | soluble on expression in E. coli
1 | MGSDKIHHHHHHMTDVTQGRIPHAVYIDPGLPEYRDNPLIASLPPIFDTKQVITKLRLKPLYDSAERNLDGRLRVHAIARLLNRFFQPLSHHLELEQKISLILRQGYLGRNPEQGSYHLHLQNGFKRIQEEDLDAFVFDQARSSANSLSLFGCSGCGKSVTINRILSVYEQAIFHPEHNITQLTYLKIECPVDGDLDELCLSFFNEVDRVLHTQYSTSHGRKKLGTKRLMASMCQIANLHALGVLIIDEVQNLNEAKSGGAEKMHNFFVSLVNTIGVPVIQVGTHRARKFFQRTFRAARRITGFGSLLWDRLPNDHQWRQLLKLLWQYQWLRSAEPINDELVGTMYDLTQGVMDIVVKLYVLAQVRAIVTGMERITSELLKQVYHDEFKPVHPMLAALRSNNPGLLEQYDDLLMPEIEARMLSMVSSLEQADTYVDRPEISTDKSKKLLVLLSQMDIPEDIAIPLVDRVISRHPELSVAALMHKVTEYTADVTAEPPKINRIKRTQWLELPTNDLRYLYASSDKNNVYQLFKNQGLIYDLKSVSNRTG | not soluble
2 | MHLLPELASHHAVSIPELLVSRDERQARQHVWLKRHPVPLVSFTVVAPGPIKDSEVTRRIFNHGVTALRALAAKQGWQIQEQAALVSASGPEGMLSIAAPARDLKLATIELEHSHPLGRLWDIDVLTPEGEILSRRDYSLPPRRCLLCEQSAAVCARGKTHQLTDLLNRMEALLNDVDACNVN | not soluble
3 | TFKHSRDILGRTFDILVIDLSYDYSPNDLGRIIETVRGGGLIFVLTNPFEKWKDMWTGFHKSLVTPPYTIEDVKKRFNRRLIRKFTEHKGIYIVNTDRMSIERKPG | not soluble
4 | TAGFSLNVLTINTHKGFTAFNRRFILPELRDAVRSVSADIVCLQEVMGAHEVHPLHIENWPDTTHYEFLADTMWSDYAYGRNAVYPEGHHGNAVLSRFPIEYYENRDISVGNGEKRGLLYCRIVPPRSGITIHVICVHLGLRADQRQAQLTMLAEWVNTLPAGEPVVVAGDFNDWRQQANQPLKAQAGLEEIFTRARGRPARTFPVSFPLLRLDRIYVKNAHASRPKALALKQWRHLSDHAPLSVEIHL | not soluble
5 | MKSHCNKMVGGELKPIIAALLPVEPFYPTQVPFVLSRYIYDVADRQQSSLDYVAVSALCALAAVIGNPHCS | not soluble
6 | MKYQLRAIDNQLDEMLQFSGAIAVEGVKGVGKTESAIRRSEHLLQLDRAGDRQLLEADPEFSSFSTGTILIDEWQRMPECWDFVRRGVDAQRTPGRFLLTGSATPQAGIDTHSGAGRILSIRMRPMALFERREHSATVSLADLFLGNAPISGTTDLTLNDYVSEIARSGFPGFNEQPQRAINVELDSYIERIVDRDLPEQGYNVRNRAGLLGWMRAYAAASSTTMSYSEILNAATPGESDKPARKTAALYRSKLTEIWMLDEVPAWDFVRSPLAGLAQAPKHQLADPAFVLRLLGVPANRLVTERYRHFLGPLFESLATLSVRVAAESQFGSVRHLRTRRGDHEVDLIASNQDGDLVAIEVKLTADVKNDDVAHLHWLKEQLPDDVVDMVVLTTGNRAYRRSDGVAVVPLALFGA | not soluble
7 | MPKIDLIIFDCDGVLVDSEYLAAQIGSQLLKKIGYEISPEELSARYAGLIFPDILKKVEQETGKPTSAHLIDQMSDLFRAQIKTELRAIDGIKEAIEAIQSHYPYCICSNARSTEIKEMLTIVDLYDFFDNKDKIFSAPEVGTKKTKPAPDVFLFAAQQLRVKPKNTIVIEDSIHGVHAATAAGMRVIGFTGGSHSYLGHSNALVEAGAETAIAKHAHLLEVLEAMAVWQDLP | not soluble
8 | GMDIINNRRSIRNYKGKKVEKEKIEKLLRAAMQAPSAGNQQPWEFIVLEDRENIDKLSNFSKYANSLKTAPLAIVLLADEEKMKISEMWEQDMAAAAENILLEAAYLDLGAVWLGAQPIEERVKNLKEMFNLKSNIKPFCVISVGYPENSENKFIDRFDAKRIHIEKY | soluble
9 | MGSDKIHHHHHHMENIESSFIDLPNPRKDIEDLQPYSAPLEGRRNLLRLDFNENTIGPSPLVIKSLREISRDEISAYPEYSGLKEKVVESLIKKNSNVNINSSEVGIFNGVDAAINAIFHAYGNFDDLMLTTLPTFGYYTPCAQMRGMQIKAIPYEGEGFQYPFDSICEFLTQNNPKILLICNPNNPTGTRLSPERIIEISKLSSKTLVVVDELYEAFTGDSVLPFLNFQTTPNLVVLRSLSKTAGLASLRIGFAIGHSKVINIVNRVTGPYDVNSFAVIAAFAALNDQSYIDSYVQEVLEARNWIKDQFEKHHVKHHIDGGNYFLLWPKSKPQLVEQKLKSSGILIRNMDKKKNLKGSIRVSIGTIDQMKRFWSAFRIVDEV | not soluble
10 | MDNLLIQVTGKKRVVLFSPRDAQYLYLKGTKSEVLNIDNPDLAKYPLFSKARRYECSLEAGDVLFIPALWFHNVISEEFGVGVNIFWKHLPSECYDKTDTYGNKDPTAASRAAQILDRALKTLAELPEEYRDFYARRMVLHIQDKAYSKNSE | not soluble
11 | SLFIDAHNHLDFFEEQEKLNKALDIIKNDNIITLGCSMDTKSYKFTKSLALKNKNIIPCFGIHPSRAHENFKNLECFDEYIRESKIIGEIGLDYVWVKEKEKYPHMKRVFTYFLEEAKKYNKITNIHTKGAESEIYNYIKKYELKTPIIHWYSGDKDTLKKLLDYGCYFTISVDIGYSKLSKEIVQLLPIDKILTETDGPTSLEWVNGDYGYPNVIKNVVKEISKIKNIQEEEVKGVIENNFKTLIRKEGITL | not soluble
12 | MIVTTAGRTNKEMTDYANEVAAELNASFVKRNDIPVHKLHEQYEQDVLVVGKNRLAIYPKGTEESFFFHPNSAMFRVKRLMRGEHDPFVQATQLERGMTVLDCTLGMASDSIVASYVVGESGKVTGLEGNEYMAYIMENGLKTWSSSVSEIDEAMQRIQVKQTEHFSFLAQCEDNSYDVVYLDPMFEETVIESDGIKGLKHFALYHDITDETIAEAKRVARKRVVLKDHFRSSRFEKHNFYVYKRKSAKFHFGVIDPC | not soluble
13 | MGSDKIHHHHHHMDNEIVSSWHQGELAVQQRAGTDERMAEIGPKFIREFMPQQHRDFFQSLSMIFVGYTDHCSNAYASVLFGAPGFIQSPTETELVINTQSTIGDFIIEDLREGDHIGLVGIEFDTKRRNRINGVITDINQKNIKVKVLQSYGNCPKYIQPKEFAPNRSYSEFTTVSLDQLSQKYREIISSADTFFIASSFDDGQKFRNRGVDVSHRGGEVGFVSINAAGQLLVDDYVGNGFFNTLGNLLENPIASLLFCDWQTGHVLKIAVSSEILWHDEQQDSVVLAAGKVKRSLCFTPIKIEQFNNGLAYIQQF | not soluble
14 | MLRSLSTISKSTVRCMSLTSKMAAEQPSKQEVDDLFAEKPQHHNPEQRRHAYSVNKVELVGGVALDPLYKTGRNGKPYLIFNIITNSYFKQQDGTTLDQTERHAVSVFGKQAEILSKTIKKGSRLMVQGRLHYSGGQKDEQGNRTQRNTYIIAQTVQPLARAARENPDQH | not soluble
15 | MSTQNEESEESARRPQSISHLARVEVEEPARKMRLMFGEKQVVFIRSDGLRSRVVRENMKKKLSQEIEKKEDLDTDSPNLTKVIDDVASGATGSSSLPSSSTESYSTSSSSSSSSSDLNSAYSSTSEPQATSSSAPESSTNSSASPEIKGNRNYHPPREFHGASTMVSHKRRWTYQTACDINAAEQSGDSEMYYIAHPLLPMPRGSGRNEVSTATRMNYAGQQIDNRKFRGQSKAVNQFANTESVTCEKCGMRYFFESIQMQERISYLLPPNEEDLPIALFECPVCKITTKVK | not soluble
16 | MSKDAVSILFLGIDDNEGRRKNGQTTEHSRTDSMILSTFSPEKRQIRLLSIPRDTISYIPKVGYYDKITHAHAYGGPVAAMDSVEATLNVPVDYYVRVNMDAFVEAVDELGGIYYDVPYDLNEPNTDDSGRIKIKKGYQKLNGDEALAVARTRHHDSDLKRGERQMDLIKLLFQKAKSLDSYDKLDDLVQIVGKNAKHNLTSSEIKSLASMYLSDDIEFKKSQLKGKDDYLQNIYYYNPSVSSIMKYSNILRSDLGLSKITDKDEFLDQRVIKHYGTLIPLTPLDQSLLKNNQKDSSSSDDNNDDSTNSDNNNNIQSSEENSSNSNEGIDQSSQGSTQSDNYNQTNSSNSFNNNQDQMNQIYLEHHHHHH | soluble
17 | MAAERVFISPAKYVQGKNVITKIANYLEGIGNKTVVIADEIVWKIAGHTIVNELKKGNIAAEEVVFSGEASRNEVERIANIARKAEAAIVIGVGGGKTLDTAKAVADELDAYIVIVPTAASTDAPTSALSVIYSDDGVFESYRFYKKNPDLVLVDTKIIANAPPRLLASGIADALATWVEARSVIKSGGKTMAGGIPTIAAEAIAEKCEQTLFKYGKLAYESVKAKVVTPALEAVVEANTLLSGLGFESGGLAAAHAIHNGFTALEGEIHHLTHGEKVAFGTLVQLALEEHSQQEIERYIELYLCLDLPVTLEDIKLKDASREDILKVAKAATAEGETIHNAFNVTADDVADAIFAADQYAKAYKEKHRK | soluble
18 | GTTVHCDYLNRPHKSIHRRRTDPMVTLSSILESIINDMRDLPNTYPFHTPVNAKVVKDYYKIITRPMDLQTLRENVRKRLYPSREEFREHLELIVKNSATYNGPKHSLTQISQSMLDLCDEKLKEKEDKLARLEKAINPLLDDDDQVAFSFILDNIVTQKMMAVPDSWPFHHPVNKKFVPDYYKVIVNPMDLETIRKNISKHKYQSRESFLDDVNLILANSVKYNGPESQYTKTAQEIVNVCYQTLTEYDEHLTQLEKDICTAKEAALEEAELESLDPMT | soluble
19 | MGSDKIHHHHHHMTKHNKAYKFRLYPTGDQAHLMRKTFGCVRFVYNRMLAERKEAYEKHKDDKEQLKKQKLPTPAKYKAEFEWLKEVDSLALANAQLNLQTAYKNFFRGQNDFPTFKSKKDRKSYTTNVVNGNIMLLNGHIKLPKLKMVRIKQHREIPQDHVIKSCTISMTPTGKYYVSILTEYEKEIVQNEVETVVGLDFAMDRLYVSSEDERANYPKFYREMLDRLAKAQRVLSRRTKGSIRWNKQRIRVAKLHEKVANQRKNFLHHKSKELATHFDVVAIEDLNMKGMSQALHFGKSVADNAWGMFTSFLAYKLHEQGKQLMKIDKWFPSTKTCSSCGNVKNMSLSERVYSCICGVNLDRDYNAAINIKNEAIRLLALA | not soluble
20 | MSLLNIKFTDNAVDYLKRREILDKILILITDDGGGKYSIQGGSCSMGAHFSIIWLDKVDPDYPVKIANEQNVKIYTSDFDKTMLGPNMVMDYNAGSLSLSSDEGLLDGSVDIGNGAALLKANKNVQMGINRQCEGHHHHHH | soluble
21 | MIITVTAFKGGVGKTTSSIHLAAYLNNKAPTILIDGDLNRSALLWASHEKLDFPVVDEREGLKAARNYEHIVVDTPARPEIEEIRSLARGCDLMILPTSPDALSMGALQANIQTFKQLNIPNFRILMTIVPPKPSTAGTEAKEYLQSLGLPVFKRMITRYAAFPKAALEGCVVRDVKGDRYAGAGWNDYKTVGGEIYGLEHHHHHH | soluble
22 | MEYKSSPKRPYYLRGFYDWLVDNSFTPYLVVDATYLGVNVPVEYVKDGQIVLNLSASATGNLQLTNDFIQFNQRFKGVSRELYIPMGAALAIYARENGDGMMFEPEEIYDELNIEPDTEQPTGFYEAVD | soluble
23 | MWNETVEHENAGNGWAAGESSFMTDRKPDSKATTLGERLPVPVTISNLIEHFSAQDDKYVVGTFRFATVLTVGIVKDISQDGTTYTYDLCDPNNTEMEYRTLKYDNEGSTFDHSSIVEGTRVRAIGKLKGFDGNNTIMLFNITPVEDDKDFTIFELEAEAARLFFQKNVSEKLKSVDSDGFQGMLAPPKSRMSQTSHQSSQGSDTKERLYAQPQKVMTGANQGDVLRERITAVLMAVPEGSRDEGRHVSWIAEQIQETNISIVRKCVGEMVENGLVYTTVDEETVSAI | not soluble
